# Patent publication US20240309103A1 (Regeneron, published 2024)
# Changes are numbered by the printed parent chain.
# B1: mAb25497 (antibody, human IgG4, V domains shown)
# VH: QVQLVQSGAEVKEPGASVKVSCKASGYTFTDYYIHWVRQAPGQGLEWMGWINLNSGGKNHAQKFQGRVTVTSDTSINTAYIELGRLRGDDTAVYYCSRGGGSHYYYYYHGMDVWGQGTTVTVSS
# VL: DIQMTQSPSSLSASVGDRITITCRASHSIDSYLNWYQQKPGKAPKLLIYPASTLQSGVPSRFSGSGSGTDFTLTISSLQPEDSAIYYCQQSYSTPLTFGGGTKVEIK
# B2: mAb25498 (antibody, human IgG4, V domains shown)
# VH: QVQLVESGGGVVQPGRSLRLSCVASGFTFSSYGMVWVRQTPGKGLEWVAVIWHDGTNNYYADSVKGRFTISRDNSKNTLYLQMNSLRAEDTAVYYCAREPWLVRGYYYYAMDVWGQGTTVTVSS
# VL: not shown
# B3: mAb25479 (antibody, human IgG4, V domains shown)
# VH: QVQLVQSGAEVKKPGASVKVSCKASGYTFTGYYIHWVRQAPGQGLEWMGWINPNSIGTNYAQKFQGRVTLTRDTSISTAYMELSSLRSDDTAVYYCARGGSSSYYYYYYGMDVWGQGTTVTVSS
# VL: B1 VL with I19V, H27Q, S31N, P50V, T53S, S83F, I85T
# B4: mAb25508 (antibody, human IgG4, V domains shown)
# VH: EVQLVESGGGVVRPGGSLRLSCAASGFNVDDYGMSWVRQIPGKGLEWISGINWNGGRIYYADSMKGRITISRDNAKNSLYLQMNSLRAEDTALYHCVRDQWLVRGLDYWGQGTLVTVSS
# VL: DIQMTQSPSSLSASVGDRVTITCRASQGIYNYLAWFQQKPGKAPKSLIYAASSLQSGVPSKFSGSGSGTDFTLTISSLQPEDFATYYCQQYNTYPYTFGQGTKLEIK
# Molecular target: T1, mNPR1-mFc (mouse)
# T1 construct: also called mouse NPR1 extracellular domain expressed with a C-terminal mouse IgG2a
# T1 chain: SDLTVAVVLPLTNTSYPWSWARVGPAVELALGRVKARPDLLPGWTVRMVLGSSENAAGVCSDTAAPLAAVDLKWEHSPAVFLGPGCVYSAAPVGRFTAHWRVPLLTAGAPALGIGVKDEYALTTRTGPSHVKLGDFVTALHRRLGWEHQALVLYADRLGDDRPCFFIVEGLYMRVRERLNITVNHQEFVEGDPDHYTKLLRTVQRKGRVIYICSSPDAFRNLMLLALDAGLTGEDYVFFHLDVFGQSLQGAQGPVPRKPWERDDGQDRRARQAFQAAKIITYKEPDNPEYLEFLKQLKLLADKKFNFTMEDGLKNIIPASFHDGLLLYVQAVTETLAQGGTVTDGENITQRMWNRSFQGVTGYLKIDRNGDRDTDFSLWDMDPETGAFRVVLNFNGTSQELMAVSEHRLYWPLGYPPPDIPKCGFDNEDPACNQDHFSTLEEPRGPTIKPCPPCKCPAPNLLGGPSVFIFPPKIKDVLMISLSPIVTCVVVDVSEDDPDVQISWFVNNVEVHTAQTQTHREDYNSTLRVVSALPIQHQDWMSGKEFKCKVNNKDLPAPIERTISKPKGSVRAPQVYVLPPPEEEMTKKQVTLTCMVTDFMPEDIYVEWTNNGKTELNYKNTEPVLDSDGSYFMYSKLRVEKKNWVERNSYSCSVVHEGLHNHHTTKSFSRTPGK
# Experiment: SPR Biacore, mAb captured by anti-human Fc, 25C
# Experimental: (§1) Equilibrium dissociation constant (KD) for different NPR1 reagents binding to purified anti-NPR1 monoclonal antibodies (mAbs) were determined using a real-time surface plasmon resonance based Biacore 4000 biosensor. All binding studies were performed in 10 mM HEPES, 150 mM NaCl, 3 mM EDTA, and 0.05% v/v Surfactant Tween-20, pH 7.4 (HBS-ET) running buffer at 25° C. and 37° C. The Biacore CM5 sensor chip surface was first derivatized by amine coupling with either mouse anti-human Fc specific mAb (GE Healthcare, #BR100839) or goat anti-human Fcy specific polyclonal antibody (Jackson ImmunoResearch Laboratories, #BR-1008-39) to capture anti-NPR1 mAbs.
row,Binder,100 nM Ag Bound (RU)
1,B1,1 RU
2,B2,0 RU
3,B3,-1 RU
4,B4,-1 RU

# Molecular target: T2, human NPR1 on HEK293/hNPR1.myc.DDK cells with 10 nM hANP (NPR1-ANP complex) (human, UniProt P01160 124-151)
# T2 construct: also called NPR1-ANP Complex on the Cell Surface
# T2 sequence: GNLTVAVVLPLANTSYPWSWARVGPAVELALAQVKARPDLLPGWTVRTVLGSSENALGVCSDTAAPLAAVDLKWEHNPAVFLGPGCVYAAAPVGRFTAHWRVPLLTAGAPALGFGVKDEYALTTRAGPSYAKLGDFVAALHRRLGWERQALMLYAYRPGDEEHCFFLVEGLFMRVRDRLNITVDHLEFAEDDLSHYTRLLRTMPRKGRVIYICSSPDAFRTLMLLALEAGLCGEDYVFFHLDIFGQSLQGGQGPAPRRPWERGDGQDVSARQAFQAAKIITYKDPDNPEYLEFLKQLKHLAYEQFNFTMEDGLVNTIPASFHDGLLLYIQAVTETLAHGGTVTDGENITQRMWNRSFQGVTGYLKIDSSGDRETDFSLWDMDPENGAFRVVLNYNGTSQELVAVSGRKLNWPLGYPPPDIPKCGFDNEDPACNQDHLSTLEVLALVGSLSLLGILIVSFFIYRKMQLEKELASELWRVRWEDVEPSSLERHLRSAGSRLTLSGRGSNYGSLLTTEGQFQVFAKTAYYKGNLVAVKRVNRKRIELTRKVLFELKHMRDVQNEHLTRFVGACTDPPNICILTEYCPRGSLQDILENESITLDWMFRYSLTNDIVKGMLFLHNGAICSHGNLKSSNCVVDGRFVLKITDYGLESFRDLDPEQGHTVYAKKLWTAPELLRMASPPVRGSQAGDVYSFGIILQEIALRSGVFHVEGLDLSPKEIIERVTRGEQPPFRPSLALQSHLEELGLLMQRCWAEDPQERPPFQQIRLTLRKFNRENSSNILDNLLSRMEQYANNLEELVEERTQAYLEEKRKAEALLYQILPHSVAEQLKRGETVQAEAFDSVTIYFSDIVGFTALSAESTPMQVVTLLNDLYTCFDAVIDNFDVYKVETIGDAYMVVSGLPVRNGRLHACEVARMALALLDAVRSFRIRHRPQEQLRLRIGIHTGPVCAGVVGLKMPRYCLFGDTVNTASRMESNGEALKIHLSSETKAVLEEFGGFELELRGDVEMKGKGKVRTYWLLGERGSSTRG
# T2 sequence (peptide): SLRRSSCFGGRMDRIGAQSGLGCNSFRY
# Experiment: ECL cell binding (MSD), +10 nM hANP
# Experimental: (§2) All cells were washed once with 1×PBS with Ca²⁺/Mg²⁺ and counted with a Cellometer™ Auto T4 cell counter (Nexcelom Bioscience). Approximately 2.0×10⁴ HEK293/hNPR1.myc.DDK or HEK293 cells were seeded separately onto 96-well carbon electrode plates (MULTI-ARRAY high bind plate, Meso Scale Discovery (MSD, Rockville, MD)) and incubated for 1 hour (h) at 37° C. Nonspecific binding sites were blocked by 2% BSA (w/v) in 1×PBS with Ca²⁺/Mg²⁺for 1 h at room temperature (RT). HEK293/hNPR1.myc. […] The plate-bound antibodies were detected with SULFO-TAG™-conjugated goat polyclonal anti-human IgG antibody specific for heavy and light chains (Jackson Immunoresearch, West Grove, PA) for 1 h, RT.
# (§3) After washes, plates were developed with Read Buffer (MSD, Rockville, MD) according to manufacturer's recommended procedure and luminescent signals were recorded with a SECTOR Imager 600 (MSD, Rockville, MD). Luminescence intensity, measured in relative light units (RLU), was recorded to indicate the binding intensity of each antibody at the range of concentrations.
# (§4) In addition, direct binding signals (RLU) were analyzed as a function of the antibody concentration and data were fitted with a sigmoidal (four-parameter logistic) dose-response model using R statistical package (open source).
Binder,EC50,Ratio at 3.7 nM Ab concentration of Cell Binding Signal (RLU) to HEK293/hNPR1.myc.DKK relative to parental HEK293
B1,0.87 nM,87 ratio
B2,1.8 nM,49 ratio
B3,1.2 nM,51 ratio
B4,1.3 nM,35 ratio

# Molecular target: T3, human NPR1 on HEK293/hNPR1.myc.DDK cells (0 hANP) (human, UniProt P16066 33-1061)
# T3 construct: Full-length receptor on engineered HEK293 cells, no ANP added; also called HEK293/hNPR1.myc.DKK
# T3 sequence: T2 sequence
# Experiment: ECL cell binding (MSD), 0 hANP
# Experimental: as §2, §3, §4
Binder,EC50,Ratio at 3.7 nM Ab concentration of Cell Binding Signal (RLU) to HEK293/hNPR1.myc.DKK relative to parental HEK293
B1,1.5 nM,50 ratio
B2,4.6 nM,41 ratio
B3,1.7 nM,30 ratio
B4,–,18 ratio

# Molecular target: T3, human NPR1 on HEK293/hNPR1.myc.DDK …
# Experiment: cell-based or functional assay
Binder,"% Activation (vs ANP max), Expt 1","% Activation (vs. ANP max), Expt II","EC50 (nM), calcium flux, Expt 1","EC50 (nM), calcium flux, Expt II"
B1,71.1%,103%,72.6 nM,56.4 nM
B2,67.7%,–,335 nM,–
B3,66.7%,82.8%,174 nM,102 nM
B4,56.1%,–,326 nM,–

# Molecular target: T1, mNPR1-mFc
# Experiment: SPR Biacore, mAb captured by anti-human Fc, 37C
# Experimental: as §1
Binder,100 nM Ag Bound (RU),binding result
B1,1 RU,no binding (tested: 100 nM)
B2,0 RU,no binding (tested: 100 nM)
B3,2 RU,–
B4,0 RU,–

# Molecular target: T4, mfNPR1-mFc:hBNP complex (monkey; human, UniProt P16860 103-134)
# T4 construct: Receptor-Fc pre-complexed with 10-fold hBNP
# Experiment: SPR Biacore, mAb captured by anti-human Fc, 37C
# Experimental: as §1
Binder,100 nM Ag Bound (RU),Kd,koff,kon,t½
B1,100 RU,2.9 nM,0.000166 s⁻¹,57400 M⁻¹ s⁻¹,69.5 min
B2,113 RU,8.91 nM,0.000464 s⁻¹,52100 M⁻¹ s⁻¹,24.9 min
B3,135 RU,5.53 nM,0.000293 s⁻¹,53000 M⁻¹ s⁻¹,39.4 min
B4,266 RU,0.354 nM,0.00015 s⁻¹,423000 M⁻¹ s⁻¹,77.1 min
